The values below come from patent US20030157090A1 (published 2003).

Positions count from the first letter of the chain named.

The target in assay [1] is cucumber mosaic virus (CMV), purified (cucumber mosaic virus). The assay can be described thus: SPR (BIAcoreX), purified CMV amine-coupled to a CM5 chip, scFv in flow; kD=koff/kon.
Assay [2] concerns the target T1, lysozyme (Sigma) (chicken, UniProt P00698 19-147).
T1 construct: also called lysozime; Lisozyme
In words: column 'Specificity' of Table I; clone selected from the monoscaffold phage library and screened by ELISA.

Assay [3] addresses T1, lysozyme (Sigma). The assay can be described thus: ELISA on coated lysozyme, E. coli periplasmic extracts normalized for total protein.

T1 sequence (P00698 19-147): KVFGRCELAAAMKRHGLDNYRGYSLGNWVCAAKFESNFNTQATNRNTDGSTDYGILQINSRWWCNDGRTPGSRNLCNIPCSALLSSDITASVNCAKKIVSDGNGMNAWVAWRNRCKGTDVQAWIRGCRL

B1: scFv(CMV-4G) (scFv)
scFv: QVQLQESGGDLVQPGGSLKLSCAASGFTFSSYGMSWVRQTPDKRLELVATINSNGGSTFYPDSVKGRFTISRDNAKNTLYLQMSSLKSEDTAMYYCARNNWSFDYWGQGTTVTVSSGGGGSGGGGSGGGGSDIELTQSPASLAVSLGQRATISCRASESVHNYMHWYQQKPGQPPKLLIYRALNLESGIPARFSGSGSRTDFTLTINPVEADDVATYYCQQGQRKPWTFGGGTKLEIKR
As for B1, the Kd in assay [1] worked out at 60 nM. This counts as double-digit nanomolar.

B2: scFv(CMV-4B) (scFv)
scFv: B1 scFv with W101Y, Q223R, K225A
On to B2, for which the Kd in assay [1] amounted to 10 nM.

B3: scFv(LYS-11E) (scFv)
scFv: B1 scFv with N99T, N100R, W101P, S102Y, G222V, Q223T, R224Y
notes: also called scFv(HEL-11E)
In the case of B3, the binding result with lysozyme (Sigma) [2] is listed as “binds”.

B4: scFv(P5) (scFv)
scFv: QVQLQESGGDLVQPGGSLKLSCAVSGFSLTGYGVNWVRQTPDKRLEWVAMIWGDGNTDYNSSVKGRFTISKDNAKSTVYLQMSSLKSEDTAMYYCARERDYRLDYWGQGTTVTVSSGGGGSGGGGSGGGGSDIELTQSPASLAVSLGQRATISCRASGNIHNYLAWYQQKPGQPPKLLIYYTTTLADGIPARFSGSGSGTDYTLTINPVEADDVATYYCQHFWSTPRTFGGGTKLEIKR
notes: Last product of mutagenesis, with the highest number of substitutions; also called P5 mutant; LYS/P5
Turning to B4, in the assay with lysozyme (Sigma) [3], the binding result is given as “binds”.
